Test results from publication PMC3622243.
pKd: −log10 of the molar value.

Experiments:
[1] = biological target: HLA-B27 heterotrimer complexed with the HIV GAG-KK10 L6M escape mutant peptide (human | not stated | HIV); assay: SPR
[2] = biological target: HLA-B27 free heavy chains generated from immobilised heterotrimers (human); assay: SPR
HLA-A3 heterotrimer = assay: SPR
[3] = biological target: HLA-A3 expressed by transfected LBL.721.221 cells (human); assay: flow cytometry on cells
[4] = biological target: HLA-B*2705 expressed by transfected LBL.721.221 cells (human); assay: flow cytometry on cells
[5] = biological target: HLA-B35 expressed by transfected LBL.721.221 cells (human); assay: flow cytometry on cells
[6] = biological target: c67s mutant of HLA-B*2705 expressed by transfected LBL.721.221 cells (human); assay: flow cytometry on cells
[7] = biological target: HLA-A2 expressed by transfected LBL.721.221 cells (human); assay: flow cytometry on cells

Substance	pKd [1]	pKd [2]	pKd (HLA-A3 heterotrimer)	geometric mean fluorescent intensity [3]	geometric mean fluorescent intensity [4]	geometric mean fluorescent intensity after inhibition with HC10 [4]	geometric mean fluorescent intensity after inhibition with W632 [4]	geometric mean fluorescent intensity after isotype control MAbs [4]	geometric mean fluorescent intensity [5]	geometric mean fluorescent intensity [6]	geometric mean fluorescent intensity [7]
LILRB1 incorporating the two immunoglobulin-like domains D1 and D2 (domain or fragment)	5.41										
LILRB2 incorporating the two immunoglobulin-like domains D1 and D2 (domain or fragment)	4.80	5.59	4.60								
Soluble LILRB2Fc incorporating the D1, D2, D3 and D4 domains of LILRB2 (Fc fusion)				107	568	244	161	489	81	24	233
